# Residue numbers refer to the chain shown, from its start.
# T1: peptide human SIRPgamma VKFRKGSPENVEFKSGPGTEMALGAKPSA-6His
# T1 peptide: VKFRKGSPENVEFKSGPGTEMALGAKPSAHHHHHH
# T2: recombinant hSIRPg-His (Sino Biologicals reference 11828-H08H) (human, UniProt Q9P1W8 29-360)
# T2 chain: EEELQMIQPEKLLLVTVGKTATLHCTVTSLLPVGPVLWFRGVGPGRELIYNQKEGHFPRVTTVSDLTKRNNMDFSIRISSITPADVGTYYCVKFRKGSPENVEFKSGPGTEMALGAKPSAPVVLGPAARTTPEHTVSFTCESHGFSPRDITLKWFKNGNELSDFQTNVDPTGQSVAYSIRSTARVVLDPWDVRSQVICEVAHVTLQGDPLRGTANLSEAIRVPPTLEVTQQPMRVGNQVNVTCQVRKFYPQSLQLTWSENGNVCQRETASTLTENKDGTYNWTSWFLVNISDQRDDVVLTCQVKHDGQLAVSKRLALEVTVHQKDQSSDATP
# B1: anti-SIRPg antibody A5 (antibody, V domains shown)
# VH: EVQLVESGGGVVRPGGSLRLSCAASGFTFDDYGMSWVRQAPGKGLEWVSGINWNGGSTGYADSVKGRFTISRDNAKNSLYLQMNSLRAEDTAVYYCARQMVKLWGQGTLVTVSR
# VL: SSELTQDPAVSVALGQTVRITCQGDSLRSYYASWYQQKPGQAPVLVIYGKNNRPSGIPDRFSGSSSGNTASLTITGAQAEDEADYYCNSRDSSGNHVVFGGGTKLTVLR
# B2: anti-SIRPg antibody A1 (antibody, V domains shown)
# VH: B1 VH with Q99W, M100I, V101A, L103V
# VL: B1 VL
# B3: anti-SIRPg antibody A8 (antibody, V domains shown)
# VH: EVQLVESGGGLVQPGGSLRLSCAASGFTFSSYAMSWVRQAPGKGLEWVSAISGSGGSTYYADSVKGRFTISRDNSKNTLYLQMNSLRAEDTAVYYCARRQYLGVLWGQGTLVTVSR
# VL: B1 VL
# Target: T1, peptide human SIRPgamma …
# Assay: ELISA
row,EC50,Binder
1,0.069 µg/mL,B1
2,0.0505 µg/mL,B2
3,0.0258 µg/mL,B3

# Target: T2, recombinant hSIRPg-His (Sino …)
# Assay: competition ELISA with CD47-Fc
row,IC50,Binder
1,0.045 µg/mL,B1
2,0.19 µg/mL,B2
3,0.31 µg/mL,B3
